# Data published in patent publication US10213515B2, “Glycopeptide for contrast agent targeting cancer cells and contrast agent kit containing the same” (priority 2015, dated 2019).
# Test system: HT-29 cells
# Assay: Cytotoxicity depending on the concentration of RR-S-Ac3ManNAz
# Assay type: cell-based, human
# Settings: FIG. 4B
smiles,measurement,value
CC(=O)N[C@@H](CCCCN)C(=O)NCC(=O)N[C@@H](CCCNC(=N)N)C(=O)N[C@@H](CCCNC(=N)N)C(=O)Nc1ccc(COC(=O)OC[C@H]2OC(OC(C)=O)[C@@H](NC(=O)CN=[N+]=[N-])[C@@H](OC(C)=O)[C@@H]2OC(C)=O)cc1 (stereo partly shown) [RR-S-Ac3ManNAz],concentration up to which cytotoxicity was not observed,up to 20 μM
